Measurements reported in the supplement of paper PMC7877785.
± gives the uncertainty stated by the source.

Assay: self-splicing fitness, log relative to wild type (ln ratio); higher = more splicing; Tetrahymena group I intron in knt gene, E. coli kanamycin selection, DiMSum; sequences stand for … in CUCUCU…GGAGGGAAAAGUUAUCAGGCAUGCACCUGGUAGCUAGUCUUUAAACCAAUAGAUUGCAUCGGUUUAAAAGGCAAGACCGUCAAAUUGCGGGAAAGGGGUCAACAGCCGUUCAGUACCAAGUCUCAGGGGAAACUUUGAGAUGGCCUUGCAAAGGGUAUGGUAAUAAGCUGACGGACAUGGUCCUAACCACGCAGCCAAGUCCUAAGUCAACAGAUCUUCUGUUGAUAUGGAUGCAGUUCACAGACUAAAUGUCGGUCGGGGAAGAUGUAUUCUUCUCAUAAGAUAUAGUCGGACCUCUCCUUAAUGGGAGCUAGCGGAUGAAGUGAUGCAACACUGGAGCCGCUGGGAACUAAUUUGUAUGCGAAAGUAUAUUGAUUAGUUUUGGAGUACUCGUGGUCG
Outline: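 DiMSum derived fitness as the error-weighted combination of fold changes across replicates, kanamycin versus no kanamycin, normalised to wild type. E. coli BL21(DE3) held the library, which randomised all eight P1ex-region intron nucleotides within the knt kanamycin-resistance gene on pET-22b(+). Six replicate transformations grew overnight at 37°C or 30°C on LB agar with or without 25 μg/mL kanamycin, also containing 100 μg/mL carbenicillin, 50 μM IPTG and 0.2% rhamnose, and pooled colonies were amplicon-sequenced on an Illumina HiSeq 2500.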

Sequence | self-splicing fitness (ln) (30 °C) | self-splicing fitness (ln) (37 °C)
GAUAAGCAAUAUUACGAUGU | -0.525 ± 0.082 | -0.545 ± 0.1
GAUAAGCAAUAUUACGCAAC |  | -0.343 ± 0.46
GAUAAGCAAUAUUACGCACC | -1.96 ± 0.16 | -0.327 ± 0.2
GAUAAGCAAUAUUACGCCAU | -2.79 ± 0.21 | -1.72 ± 0.17
GAUAAGCAAUAUUACGCUCA | -1 ± 0.07 | 0.0635 ± 0.097
GAUAAGCAAUAUUACGCUGC | -2.88 ± 0.23 | -3.04 ± 0.3
GAUAAGCAAUAUUACGGAGU | -2.46 ± 0.16 | -0.942 ± 0.14
GAUAAGCAAUAUUACGGCUA | -0.974 ± 0.12 | 0.143 ± 0.15
GAUAAGCAAUAUUACGGGGA |  | -2.16 ± 0.23
GAUAAGCAAUAUUACGGUAG | -3.17 ± 0.23 | -2.35 ± 0.27
GAUAAGCAAUAUUACGUCGU | -1.68 ± 0.072 | -0.373 ± 0.086
GAUAAGCAAUAUUACGUCUC | -1.74 ± 0.085 | -0.95 ± 0.1
GAUAAGCAAUAUUACGUCUU | -0.224 ± 0.069 | 0.135 ± 0.088
GAUCAGCAAUAUUACGAAAC | -0.961 ± 0.39 | 0.628 ± 0.41
GAUCAGCAAUAUUACGAAAG | -0.98 ± 0.14 | -1.2 ± 0.24
GAUCAGCAAUAUUACGAAAU | -0.667 ± 0.081 | 0.175 ± 0.1
GAUCAGCAAUAUUACGAAGA | -0.925 ± 0.11 | -0.0626 ± 0.11
GAUCAGCAAUAUUACGAAGG | -2.62 ± 0.13 | -1.59 ± 0.14
GAUCAGCAAUAUUACGAGAU | -3 ± 0.15 | -1.55 ± 0.13
GAUCAGCAAUAUUACGAUGC | -0.684 ± 0.12 | 0.0112 ± 0.12

Sequence | self-splicing fitness (ln) (30 °C) | self-splicing fitness (ln) (37 °C)
GAUCAGCAAUAUUACGAUUC | -3.05 ± 0.38 | -1.79 ± 0.27
GAUCAGCAAUAUUACGCACC | -0.91 ± 0.18 | -0.086 ± 0.23
GAUCAGCAAUAUUACGCGAG | -0.684 ± 0.07 | -1.15 ± 0.073
GAUCAGCAAUAUUACGCUGU | -3.03 ± 0.21 | -2.38 ± 0.16
GAUCAGCAAUAUUACGGAAA | -1.01 ± 0.16 | -0.212 ± 0.17
GAUCAGCAAUAUUACGGACU | -0.52 ± 0.12 | -0.894 ± 0.13
GAUCAGCAAUAUUACGGGCU | -1.98 ± 0.085 | -1.4 ± 0.1
GAUCAGCAAUAUUACGGGGG | -3.25 ± 0.18 | -2.51 ± 0.18
GAUCAGCAAUAUUACGUCAC | -3.88 ± 0.2 | -2.13 ± 0.15
GAUCAGCAAUAUUACGUCUG | -2.63 ± 0.11 | -1.84 ± 0.1
GAUCAGCAAUAUUACGUGAG | -0.0667 ± 0.052 | 0.101 ± 0.074
GAUCAGCAAUAUUACGUUGC | -2.84 ± 0.27 | -3.1 ± 0.31
GAUGAGCAAUAUUACGAGCA | -2.59 ± 0.37 | 
GAUGAGCAAUAUUACGAGUA | -3.4 ± 0.43 | -1.92 ± 0.2
GAUGAGCAAUAUUACGAGUG | -3.06 ± 0.17 | -0.833 ± 0.18
GAUGAGCAAUAUUACGAUAG | -3.33 ± 0.16 | -2.42 ± 0.17
GAUGAGCAAUAUUACGCAGC |  | -1.61 ± 0.41
GAUGAGCAAUAUUACGCCCU | -1.75 ± 0.15 | -1.4 ± 0.17
GAUGAGCAAUAUUACGCCGG |  | -2.46 ± 0.45
